In patent publication US20030229005A1 (BIOZYME, published 2003):
*1 amine or outer side, *2 acyl side, *3 side chain or, on linkers, in order; H or OH if unused. [ ]: non-standard residue; d: D form. The star is where a group is joined. Dnp = O=[N+]([O-])c1ccc(*)c([N+](=O)[O-])c1; C(Me) = CSC[C@H](N[*:1])C(=O)[*:2]

T1: collagenase 1 (UniProt P03956 100-469, limits assumed)
T1 sequence (looked up): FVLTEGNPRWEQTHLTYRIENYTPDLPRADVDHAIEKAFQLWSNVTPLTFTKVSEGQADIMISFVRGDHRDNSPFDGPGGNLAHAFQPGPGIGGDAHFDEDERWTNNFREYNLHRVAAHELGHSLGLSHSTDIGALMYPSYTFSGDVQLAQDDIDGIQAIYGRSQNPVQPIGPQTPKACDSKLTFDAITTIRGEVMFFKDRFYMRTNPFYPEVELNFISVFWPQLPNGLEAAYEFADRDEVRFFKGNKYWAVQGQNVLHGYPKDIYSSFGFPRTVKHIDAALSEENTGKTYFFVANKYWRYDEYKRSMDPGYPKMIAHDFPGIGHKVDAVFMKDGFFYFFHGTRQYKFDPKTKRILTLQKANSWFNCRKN

T2: human Gelatinase-A (human, UniProt P08253 110-660, limits assumed)
T2 sequence (looked up): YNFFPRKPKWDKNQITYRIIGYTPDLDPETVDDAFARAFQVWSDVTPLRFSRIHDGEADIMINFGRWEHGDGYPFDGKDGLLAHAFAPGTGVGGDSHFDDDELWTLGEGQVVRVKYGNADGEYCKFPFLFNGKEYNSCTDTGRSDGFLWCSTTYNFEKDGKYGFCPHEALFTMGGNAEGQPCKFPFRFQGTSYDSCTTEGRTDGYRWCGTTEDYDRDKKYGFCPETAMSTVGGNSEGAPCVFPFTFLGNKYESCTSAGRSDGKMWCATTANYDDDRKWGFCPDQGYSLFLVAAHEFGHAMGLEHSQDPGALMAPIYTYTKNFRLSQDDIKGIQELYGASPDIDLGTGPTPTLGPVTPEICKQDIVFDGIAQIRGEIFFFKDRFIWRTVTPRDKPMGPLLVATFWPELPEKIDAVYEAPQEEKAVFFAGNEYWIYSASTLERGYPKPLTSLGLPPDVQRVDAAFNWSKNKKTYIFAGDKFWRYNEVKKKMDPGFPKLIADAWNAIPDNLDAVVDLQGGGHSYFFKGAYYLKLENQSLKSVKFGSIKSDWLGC


Experiments:
Assay in all cases: cell-based or functional assay
gelatinase B = gelatinase B (UniProt P14780 107-707, limits assumed)
gelatinase B, sequence (P14780 107-707 limits assumed): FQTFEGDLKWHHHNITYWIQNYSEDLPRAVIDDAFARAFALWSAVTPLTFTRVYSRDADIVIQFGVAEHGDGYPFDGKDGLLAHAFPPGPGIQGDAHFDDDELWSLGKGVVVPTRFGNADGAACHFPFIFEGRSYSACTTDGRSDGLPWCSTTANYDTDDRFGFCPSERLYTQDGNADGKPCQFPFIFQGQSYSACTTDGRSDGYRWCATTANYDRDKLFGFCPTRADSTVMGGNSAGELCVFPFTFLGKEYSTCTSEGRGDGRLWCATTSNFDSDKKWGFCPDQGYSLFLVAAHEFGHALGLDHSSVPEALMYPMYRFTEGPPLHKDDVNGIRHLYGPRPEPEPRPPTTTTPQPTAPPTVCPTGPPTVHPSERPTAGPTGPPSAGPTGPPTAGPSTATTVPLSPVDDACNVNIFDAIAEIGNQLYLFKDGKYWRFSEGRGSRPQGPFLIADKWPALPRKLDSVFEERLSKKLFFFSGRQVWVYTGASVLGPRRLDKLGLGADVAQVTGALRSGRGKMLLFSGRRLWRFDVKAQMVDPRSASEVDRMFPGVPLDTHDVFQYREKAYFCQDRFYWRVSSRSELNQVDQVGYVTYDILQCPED

collagenase 1 = target: T1, collagenase 1
stromelysin 1 = stromelysin 1 (UniProt P08254 100-477, limits assumed)
stromelysin 1, sequence (P08254 100-477 limits assumed): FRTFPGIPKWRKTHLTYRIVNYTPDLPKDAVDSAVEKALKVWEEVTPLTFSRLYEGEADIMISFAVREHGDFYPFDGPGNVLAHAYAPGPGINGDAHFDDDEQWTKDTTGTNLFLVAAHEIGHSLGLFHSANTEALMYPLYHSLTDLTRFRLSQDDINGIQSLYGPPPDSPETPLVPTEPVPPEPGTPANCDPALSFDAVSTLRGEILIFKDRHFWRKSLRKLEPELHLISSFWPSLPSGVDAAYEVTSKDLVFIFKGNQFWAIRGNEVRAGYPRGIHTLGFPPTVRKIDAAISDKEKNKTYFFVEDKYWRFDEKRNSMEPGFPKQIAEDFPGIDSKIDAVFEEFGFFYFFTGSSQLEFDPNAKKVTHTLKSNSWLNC

human Gelatinase-A = target: T2, human Gelatinase-A

Binder | Selectivity v. Coll-3 (gelatinase B) [unitless] | Selectivity v. Coll-3 (collagenase 1) [unitless] | Selectivity v. Coll-3 (stromelysin 1) [unitless] | Selectivity v. Coll-3 (human Gelatinase-A) [unitless]
Dnp-GPAPLHV[C(Me)]-NH2 (SMILES CSC[C@H](NC(=O)[C@@H](NC(=O)[C@H](Cc1c[nH]cn1)NC(=O)[C@H](CC(C)C)NC(=O)[C@@H]1CCCN1C(=O)[C@H](C)NC(=O)[C@@H]1CCCN1C(=O)CNc1ccc([N+](=O)[O-])cc1[N+](=O)[O-])C(C)C)C(N)=O) [Dnp-GPAPLHVC(Me)-NH2] | 11 | 126 | 264 | 12
Dnp-PHPFRG-NH2 (SMILES N=C(N)NCCC[C@H](NC(=O)[C@H](Cc1ccccc1)NC(=O)[C@@H]1CCCN1C(=O)[C@H](Cc1c[nH]cn1)NC(=O)[C@@H]1CCCN1c1ccc([N+](=O)[O-])cc1[N+](=O)[O-])C(=O)NCC(N)=O) [Dnp-PHPFRG-NH2] | 4 | 2230 | 1050 | 28
Dnp-GPSPFHV[C(Me)]-NH2 (SMILES CSC[C@H](NC(=O)[C@@H](NC(=O)[C@H](Cc1c[nH]cn1)NC(=O)[C@H](Cc1ccccc1)NC(=O)[C@@H]1CCCN1C(=O)[C@H](CO)NC(=O)[C@@H]1CCCN1C(=O)CNc1ccc([N+](=O)[O-])cc1[N+](=O)[O-])C(C)C)C(N)=O) [Dnp-GPSPFHVC(Me)-NH2] | 54 | 1570 | 2100 | 18
Dnp-GPLPFHV[C(Me)]-NH2 (SMILES CSC[C@H](NC(=O)[C@@H](NC(=O)[C@H](Cc1c[nH]cn1)NC(=O)[C@H](Cc1ccccc1)NC(=O)[C@@H]1CCCN1C(=O)[C@H](CC(C)C)NC(=O)[C@@H]1CCCN1C(=O)CNc1ccc([N+](=O)[O-])cc1[N+](=O)[O-])C(C)C)C(N)=O) [Dnp-GPLPFHVC(Me)-NH2] | 18 | 2950 | 619 | 20
Dnp-GPAPFRV[C(Me)]-NH2 (SMILES CSC[C@H](NC(=O)[C@@H](NC(=O)[C@H](CCCNC(=N)N)NC(=O)[C@H](Cc1ccccc1)NC(=O)[C@@H]1CCCN1C(=O)[C@H](C)NC(=O)[C@@H]1CCCN1C(=O)CNc1ccc([N+](=O)[O-])cc1[N+](=O)[O-])C(C)C)C(N)=O) [Dnp-GPAPFRVC(Me)-NH2] | 82 | 5790 | 448 | 37
Dnp-GPLGFRV[C(Me)]-NH2 (SMILES CSC[C@H](NC(=O)[C@@H](NC(=O)[C@H](CCCNC(=N)N)NC(=O)[C@H](Cc1ccccc1)NC(=O)CNC(=O)[C@H](CC(C)C)NC(=O)[C@@H]1CCCN1C(=O)CNc1ccc([N+](=O)[O-])cc1[N+](=O)[O-])C(C)C)C(N)=O) [Dnp-GPLGFRVC(Me)-NH2] | 20 | 17300 | 3970 | 15
Dnp-GPLPFRV[C(Me)]-NH2 (SMILES CSC[C@H](NC(=O)[C@@H](NC(=O)[C@H](CCCNC(=N)N)NC(=O)[C@H](Cc1ccccc1)NC(=O)[C@@H]1CCCN1C(=O)[C@H](CC(C)C)NC(=O)[C@@H]1CCCN1C(=O)CNc1ccc([N+](=O)[O-])cc1[N+](=O)[O-])C(C)C)C(N)=O) [Dnp-GPLPFRVC(Me)-NH2] | 21 | 550 | 332 | 36
Dnp-GPLPLHG[C(Me)]-NH2 (SMILES CSC[C@H](NC(=O)CNC(=O)[C@H](Cc1c[nH]cn1)NC(=O)[C@H](CC(C)C)NC(=O)[C@@H]1CCCN1C(=O)[C@H](CC(C)C)NC(=O)[C@@H]1CCCN1C(=O)CNc1ccc([N+](=O)[O-])cc1[N+](=O)[O-])C(N)=O) [Dnp-GPLPLHGC(Me)-NH2] | 10 | 36 | 986 | 20
Dnp-GPLGLHV[C(Me)]-NH2 (SMILES CSC[C@H](NC(=O)[C@@H](NC(=O)[C@H](Cc1c[nH]cn1)NC(=O)[C@H](CC(C)C)NC(=O)CNC(=O)[C@H](CC(C)C)NC(=O)[C@@H]1CCCN1C(=O)CNc1ccc([N+](=O)[O-])cc1[N+](=O)[O-])C(C)C)C(N)=O) [Dnp-GPLGLHVC(Me)-NH2] | 26 | 182 | 12700 | 32
Dnp-GPSPLHG[C(Me)]-NH2 (SMILES CSC[C@H](NC(=O)CNC(=O)[C@H](Cc1c[nH]cn1)NC(=O)[C@H](CC(C)C)NC(=O)[C@@H]1CCCN1C(=O)[C@H](CO)NC(=O)[C@@H]1CCCN1C(=O)CNc1ccc([N+](=O)[O-])cc1[N+](=O)[O-])C(N)=O) [Dnp-GPSPLHGC(Me)-NH2] | 7 | 274 | 2990 | 8

Further lines, results first:

Selectivity v. Coll-3 (gelatinase B) [unitless] | Selectivity v. Coll-3 (collagenase 1) [unitless] | Selectivity v. Coll-3 (stromelysin 1) [unitless] | Selectivity v. Coll-3 (human Gelatinase-A) [unitless] | Binder
17 | 1430 | 35700 | 10 | Dnp-GPSGIHV-NH2 (SMILES CC[C@H](C)[C@H](NC(=O)CNC(=O)[C@H](CO)NC(=O)[C@@H]1CCCN1C(=O)CNc1ccc([N+](=O)[O-])cc1[N+](=O)[O-])C(=O)N[C@@H](Cc1c[nH]cn1)C(=O)N[C@H](C(N)=O)C(C)C) [Dnp-GPSGIHV-NH2]
13 | 2430 | 1390 | 10 | Dnp-GPSPFRG[C(Me)]-NH2 (SMILES CSC[C@H](NC(=O)CNC(=O)[C@H](CCCNC(=N)N)NC(=O)[C@H](Cc1ccccc1)NC(=O)[C@@H]1CCCN1C(=O)[C@H](CO)NC(=O)[C@@H]1CCCN1C(=O)CNc1ccc([N+](=O)[O-])cc1[N+](=O)[O-])C(N)=O) [Dnp-GPSPFRGC(Me)-NH2]
10 | 473 | 620 | 12 | Dnp-GPAPLHG[C(Me)]-NH2 (SMILES CSC[C@H](NC(=O)CNC(=O)[C@H](Cc1c[nH]cn1)NC(=O)[C@H](CC(C)C)NC(=O)[C@@H]1CCCN1C(=O)[C@H](C)NC(=O)[C@@H]1CCCN1C(=O)CNc1ccc([N+](=O)[O-])cc1[N+](=O)[O-])C(N)=O) [Dnp-GPAPLHGC(Me)-NH2]
8 | 429 | 814 | 16 | Dnp-GPLPFRG[C(Me)]-NH2 (SMILES CSC[C@H](NC(=O)CNC(=O)[C@H](CCCNC(=N)N)NC(=O)[C@H](Cc1ccccc1)NC(=O)[C@@H]1CCCN1C(=O)[C@H](CC(C)C)NC(=O)[C@@H]1CCCN1C(=O)CNc1ccc([N+](=O)[O-])cc1[N+](=O)[O-])C(N)=O) [Dnp-GPLPFRGC(Me)-NH2]
7 | 10600 | 7290 | 10 | Dnp-GPLGFRG[C(Me)]-NH2 (SMILES CSC[C@H](NC(=O)CNC(=O)[C@H](CCCNC(=N)N)NC(=O)[C@H](Cc1ccccc1)NC(=O)CNC(=O)[C@H](CC(C)C)NC(=O)[C@@H]1CCCN1C(=O)CNc1ccc([N+](=O)[O-])cc1[N+](=O)[O-])C(N)=O) [Dnp-GPLGFRGC(Me)-NH2]
14 | 4420 | 488 | 9 | Dnp-GPAPFRG[C(Me)]-NH2 (SMILES CSC[C@H](NC(=O)CNC(=O)[C@H](CCCNC(=N)N)NC(=O)[C@H](Cc1ccccc1)NC(=O)[C@@H]1CCCN1C(=O)[C@H](C)NC(=O)[C@@H]1CCCN1C(=O)CNc1ccc([N+](=O)[O-])cc1[N+](=O)[O-])C(N)=O) [Dnp-GPAPFRGC(Me)-NH2]
5 | 660 | 10400 | 16 | Dnp-GPLGLHG[C(Me)]-NH2 (SMILES CSC[C@H](NC(=O)CNC(=O)[C@H](Cc1c[nH]cn1)NC(=O)[C@H](CC(C)C)NC(=O)CNC(=O)[C@H](CC(C)C)NC(=O)[C@@H]1CCCN1C(=O)CNc1ccc([N+](=O)[O-])cc1[N+](=O)[O-])C(N)=O) [Dnp-GPLGLHGC(Me)-NH2]
